Measurements as given in patent US20250011448A1 (STAIDSON BIOPHARMA, published 2025).

T1: human TNFR2 extracellular domain with C-terminal 10×His tag (human, UniProt P20333 23-257)
T1 construct: also called huTNFR2-His; His-tag-huTNFR2
T1 sequence: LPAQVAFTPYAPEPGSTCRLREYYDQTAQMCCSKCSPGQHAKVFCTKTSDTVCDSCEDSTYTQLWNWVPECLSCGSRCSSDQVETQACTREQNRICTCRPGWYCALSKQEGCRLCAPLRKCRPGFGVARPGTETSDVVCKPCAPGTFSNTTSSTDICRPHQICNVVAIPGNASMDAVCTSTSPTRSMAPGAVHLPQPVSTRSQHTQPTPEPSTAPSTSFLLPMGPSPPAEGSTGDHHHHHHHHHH

T2: human TNFR2 expressed on cells (Expi293 cells stably expressing huTNFR2) (human, UniProt P20333 23-461)
T2 construct: whole, on cells; Also used here as the target of the Treg assay (native TNFR2 on human primary Treg cells); also called huTNFR2 expressed cells; Expi293-TNFR2 cells
T2 sequence (looked up): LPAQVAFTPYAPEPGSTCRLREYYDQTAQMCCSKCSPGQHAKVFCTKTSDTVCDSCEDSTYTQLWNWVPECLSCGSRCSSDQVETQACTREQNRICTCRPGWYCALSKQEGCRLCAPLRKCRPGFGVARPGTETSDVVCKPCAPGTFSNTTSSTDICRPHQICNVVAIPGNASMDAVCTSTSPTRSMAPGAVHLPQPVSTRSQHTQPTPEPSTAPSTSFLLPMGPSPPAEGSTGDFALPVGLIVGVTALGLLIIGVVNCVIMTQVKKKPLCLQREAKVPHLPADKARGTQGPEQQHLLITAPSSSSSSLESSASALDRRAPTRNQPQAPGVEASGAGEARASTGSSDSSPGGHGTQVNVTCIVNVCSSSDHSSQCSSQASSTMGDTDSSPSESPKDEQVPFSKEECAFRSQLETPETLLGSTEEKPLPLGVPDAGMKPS


Columns and labels:
[1] = target: T1, human TNFR2 extracellular domain with …; test: BLI (Octet RED96), antibody captured on AHC biosensor, His-tagged TNFR2 in solution, 1:1 model
Procedure: (§1) The following kinetic assay was performed using anti-human IgG Fc capture (AHC) biosensors (ForteBio) in kinetics buffer (PBS, 0.1% Tween-20 and 1% bovine serum albumin): (a) antibody (2 μg/mL) for 300 sec, (b) baseline for 120 sec, (c) association with His-tag-huTNFR2 (2.5, 0.5 and 0 μg/mL) and His-tag-cynoTNFR2 (2.5, 0.5 and 0 μg/mL) for 420 sec and (d) dissociation for 1200 sec. Data fitting and analysis was performed with Octet data analysis software 8.0 (ForteBio) using a 1:1 binding model after Savitzky-Golay filtering.

[2] = target: T1, human TNFR2 extracellular domain with …; test: BLI (Octet RED96), antibody captured on AHC biosensor, His-tag-huTNFR2 in solution, 1:1 model
Procedure: as §1, with “μg/mL)” for “μg/mL) and His-tag-cynoTNFR2 (2.5, 0.5 and 0 μg/mL)”, “filtering. The dissociation constant (Kd) was calculated as the ratio of Koff/Kon.” for “filtering.”

[3] = target: T2, human TNFR2 expressed on cells (Expi293 …); test: flow cytometry on Expi293 cells stably expressing huTNFR2, y axis TNFR2 binding (MFI)
Procedure: The coding sequence of huTNFR2 (Uniprot, P20333) was cloned into a lentiviral vector and the virus was packaged according to the instruction of the virus packaging kit (Lenti-X™ Packaging Single Shots, Cat #631275, Takada). The Expi293 cells were transduced with the recombinant virus and selected by puromycin. The cell line stably expressing huTNFR2 was incubated with anti-TNFR2 antibodies in PBS with 0.5% BSA, 1 mM EDTA, and 0.1% sodium azide (FACS buffer) for 30 minutes at 4° C. The cells were washed, and then incubated with 10 nM phycoerythrin (PE) conjugated anti-Human Fe Ab (Biolegend, cat #409304) for 20 minutes at 4° C. Cells were washed and then […] by flow cytometry with Attune (ThermoFisher Scientific). Data were analyzed with FlowJo software. Antibody binding is represented as median fluorescence intensity (MFI).
FACS based binding and blocking assays of humanized antibodies were performed as described above.

Kd [2]	koff [2]	kon [2]	EC50 (read off the curve) [3]	Binder	also measured
				6F12 chimeric anti-TNFR2 antibody (antibody, V domains shown, Chimeric: mouse variable domains with human constant regions, made as recombinant IgG1) VH: QIQLVQSGPELKKPGETVKISCKTSGYTFTIYGMNWVKQAPGKGLKWMGWIHTYTGEPTYADDFKGRFVFSLETSDSTAYLQINNLKSEDMATYFCVRRERYGSFWGQGTLVTVSA VL: DIVLTQSPASLAVSLGQRATISCTASQSVDYGGVSYMNWYQQKPGQPPKLLIYGASNQESGIPVRFSGSGSGTDFTLNIHPVEEEDAATYYCQQSNEDPPTFGAGTKLELK	Kd [1]: 3.77 nM; koff [1]: 0.000886 s⁻¹; kon [1]: 239000 M⁻¹ s⁻¹
1.95 nM	0.000796 s⁻¹	408000 M⁻¹ s⁻¹		SB1901-68 humanized anti-TNFR2 antibody (antibody, V domains shown) VH: QVQLVQSGAEVKKPGASVKVSCKASGYTFTDDYIDWVRQATGQGLEWIGEIYPGSGNTYYNEKFKGRVTMTRDTSISTAYMELSSLRSEDTAVYYCARSQVYGKIAMDHWGQGTLVTVSS VL: DIVMTQSPDSLAVSLGERATINCRASESVDNSGNSFMHWYQQKPGQPPKLLIYRASNLESGVPDRFSGSGSRTDFTLTISSLQAEDVAVYYCQQSKEDPYTFGQGTKVEIK	
			~0.6 nM	SB1901-78 (antibody, V domains shown, humanized version of 51B5; also called SB1901-78 humanized anti-TNFR2 antibody) VH: QVQLVQSGAEVKKPGASVKVSCKASGYTFTDDYIDWVRQATGQGLEWIGEIYPGSGNTYYNEKFKGRVTMTADKSISTAYMELSSLRSEDTAVYYCARSQVYGKIAMDHWGQGTLVTVSS VL: DIVMTQSPDSLAVSLGERATINCRASESVDNSGNSFMHWYQQKPGQPPKLLIYRASNLESGVPDRFSGSGSRTDFTLTISSLQAEDVAVYYCQQSKEDPYTFGQGTKVEIK	
1.25 nM	0.000513 s⁻¹	410000 M⁻¹ s⁻¹		SB1901-69 humanized anti-TNFR2 antibody (antibody, V domains shown) VH: QVQLVQSGAEVKKPGASVKVSCKASGYTFTDDYIDWVRQATGQGLEWMGEIYPGSGNTYYNEKFKGRVTMTRDKSISTAYMELSSLRSEDTAVYYCARSQVYGKIAMDHWGQGTLVTVSS VL: DIVMTQSPDSLAVSLGERATINCRASESVDNSGNSFMHWYQQKPGQPPKLLIYRASNLESGVPDRFSGSGAGTDFTLTISSLQAEDVAVYYCQQSKEDPYTFGQGTKVEIK	
			~0.6 nM	SB1901-82 (antibody, V domains shown, humanized version of 51B5; also called SB1901-82 humanized anti-TNFR2 antibody) VH: QVQLVQSGAEVKKPGASVKVSCKASGYTFTDDYIDWVRQAPGQGLEWMGEIYPGSGNTYYNEKFKGRVTMTRDTSTSTVYMELSSLRSEDTAVYYCARSQVYGKIAMDHWGQGTLVTVSS VL: DIVMTQSPDSLAVSLGERATINCRASESVDNSGNSFMHWYQQKPGQPPKLLIYRASNLESGVPDRFSGSGSRTDFTLTISSLQAEDVAVYYCQQSKEDPYTFGQGTKVEIK	
			~0.6 nM	SB1901-74 (antibody, V domains shown, humanized version of 51B5; also called SB1901-74 humanized anti-TNFR2 antibody) VH: QVQLVQSGAEVKKPGASVKVSCKASGYTFTDDYIDWVRQATGQGLEWIGEIYPGSGNTYYNEKFKGRVTMTRNTAISTAYMELSSLRSEDTAVYYCARSQVYGKIAMDHWGQGTLVTVSS VL: DIVMTQSPDSLAVSLGERATINCRASESVDNSGNSFMHWYQQKPGQPPKLLIYRASNLESGVPDRFSGSGSRTDFTLTISSLQAEDVAVYYCQQSKEDPYTFGQGTKVEIK	
2.52 nM	0.000937 s⁻¹	373000 M⁻¹ s⁻¹	~0.6 nM	SB1901-80 humanized anti-TNFR2 antibody (antibody, V domains shown) VH: QVQLVQSGAEVKKPGASVKVSCKASGYTFTDDYIDWVRQAPGQGLEWIGEIYPGSGNTYYNEKFKGRVTMTRDTSTSTVYMELSSLRSEDTAVYYCARSQVYGKIAMDHWGQGTLVTVSS VL: DIVMTQSPDSLAVSLGERATINCRASESVDNSGNSFMHWYQQKPGQPPKLLIYRASNLESGVPDRFSGSGSRTDFTLTISSLQAEDVAVYYCQQSKEDPYTFGQGTKVEIK	
